Results as given in patent publication US20240075137A1 (COMPUGEN, published 2024).
Where a chain is given by its changes, count along the chain named. Names and notes keep the numbering of the source.

T1: human PVRIG on cells (human, UniProt Q6DKI7 1-326)
T1 construct: whole, on cells; over-expressed on HEK cells or endogenous on Jurkat and CD8 T cells; also called hPVRIG; HEK hPVRIG cells
T1 sequence (looked up): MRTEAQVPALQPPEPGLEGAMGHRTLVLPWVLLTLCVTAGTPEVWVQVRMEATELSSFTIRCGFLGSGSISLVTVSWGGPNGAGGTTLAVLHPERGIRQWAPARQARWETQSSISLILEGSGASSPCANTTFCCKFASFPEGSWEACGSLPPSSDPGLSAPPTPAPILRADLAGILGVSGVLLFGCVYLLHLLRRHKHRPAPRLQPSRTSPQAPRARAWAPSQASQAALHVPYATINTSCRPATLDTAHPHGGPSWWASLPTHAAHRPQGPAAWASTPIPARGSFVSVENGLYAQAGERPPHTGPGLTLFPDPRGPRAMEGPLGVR

T2: human TIGIT on cells (human, UniProt Q495A1 22-141)
T2 construct: also called Expi293 human TIGIT over-expressing cells
T2 sequence: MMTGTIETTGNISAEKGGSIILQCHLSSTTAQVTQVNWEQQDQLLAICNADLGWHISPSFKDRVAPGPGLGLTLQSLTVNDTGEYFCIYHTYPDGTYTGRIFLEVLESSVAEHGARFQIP

T3: Mouse TIGIT-His (mouse, UniProt P86176)
T3 construct: also called mouse TIGIT monomer (prepared in-house)
T3 sequence (soluble monomer with His tag, looked up): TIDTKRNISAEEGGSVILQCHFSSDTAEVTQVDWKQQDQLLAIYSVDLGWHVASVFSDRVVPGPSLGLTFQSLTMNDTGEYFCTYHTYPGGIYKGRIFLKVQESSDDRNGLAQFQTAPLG

T4: human TIGIT ECD with C-terminal polyhistidine tag (human, UniProt Q495A1 22-141)
T4 construct: in-house or Sino Biological; also called hTIGIT-HIS; human TIGIT-HIS
T4 sequence: T2 sequence

B1: CPA.7.021 (antibody, V domains shown)
VH: EVQLVESGGGVVKPGGSLRLSCAASGFTFGTSSMNWVRQAPGKGLEWVAVISFDGTEIHYADSVKGRFTISRDNSKSTVFLQMNSLRPDDTALYYCAKGSGNIYFYSGMDVWGQGTTVTVSS
VL: DIQMTQSPSTLSASVGDRVTITCRAGQSISGWLAWFQQKPGKAPNLLIYETSTLESGVPSRFSGSGSGTEYTLTISSLQPDDFATYYCQQYYSYPLTFGQGTKVEIKR
B2: CHA.9.547.7.H4(S241P) (antibody, human IgG4 S228P, kappa, V domains shown)
VH: EVQLVESGGGLVQPGGSLRLSCAASGFTFSSYIMSWVRQAPGKGLEWVATISGGGTNTYYADSVKGRFTISRDNSKNTLYLQMNSLRAEDTAVYYCAKWLLSYYAMDYWGQGTLVTVSS
VL: DIQMTQSPSSLSASVGDRVTITCRASQNINVWLTWYQQKPGKAPKLLIYKASKSHTGVPSRFSGSGSGTDFTLTISSLQPEDFATYYCQQGQSYPYTFGQGTKLEIKR
notes: humanized hybridoma anti-TIGIT antibody, human IgG4
B3: CHA.9.547.13.H4(S241P) (antibody, human IgG4, V domains shown)
VH: B2 VH
VL: DIQMTQSPSSLSASVGDRITITCRASQNINVWLSWYQQKPGKAPKLLIYKASKSHTGVPSRFSGSGSGTDFTLTISSLQPEDFATYYCQQGQSYPYTFGQGTKLEIK
notes: humanized hybridoma antibody, human IgG4 (S241P)
B4: CPA.9.083 (fab) (Fab, V domains shown)
VH: EVQLVETGGGLIQPGRSLRLSCAASGFTFSSYAMHWVRQAPGKGLEWVAVISYDGTPVYYADSVKGRFTISRDNSKNTLYLQMNSLRAEDTAVYYCARDPLPLHYYGMDVWGQGTTVTVSS
VL: QSALTQPRSASGNPGQRVTISCSGSSSNMGRRPVNWYQQIPGTAPKLLIYSQNQRPSGVPDRFSGSQSGTSASLTISGLQSEDEAEYFCAVWDGDRRSLQLGGGTQLAVLG
notes: variant of CPA.9.027 screened as fab
B5: CPA.9.083.H4(S241P) (antibody, human IgG4, V domains shown)
VH: B4 VH
VL: B4 VL
B6: CPA.9.089 (fab) (Fab, V domains shown)
VH: B4 VH with G55R
VL: QSALTQPRSASGNPGQRVTISCSGSSSNMGRRPVNWYQQIPGTAPKLLIYSQNQRPSGVPDRFSGSQSGTSASLTISGLQSEDEAEYFCATWDDSLPRLNFGGGTKLAVL
notes: as for B4
B7: CPA.9.027 hIgG4 (antibody, V domains shown)
VH: B4 VH with T56S, P57N, V58K
VL: B4 VL with G94D, D95S, R96L, R97S
notes: phage-derived anti-TIGIT, human IgG4; also called CPA.9.027-H4
B8: CPA.9.086 (fab) (Fab, V domains shown)
VH: B4 VH with D54A, T56E, P57V, V58K
VL: B4 VL with G94D, D95I, R96G, S98V
notes: as for B4
B9: CPA.9.093 (fab) (Fab, V domains shown)
VH: B4 VH with D54E, T56D, P57R, V58K
VL: B6 VL with L96T, R98H, L99G, N100V
notes: as for B4
B10: CPA.9.049 hIgG4 (antibody, V domains shown)
VH: B4 VH with T56S, P57N, V58K
VL: B4 VL with G94D, D95S, R96L, R97F, Q100L
notes: phage-derived anti-TIGIT, human IgG4; also called CPA.9.049-H4

Key:
human PVRIG on cells [1] = target: T1, human PVRIG on cells; assay: FACS on HEK hPVRIG cells; column head 'Kd', unit nM from legend paragraph 75
human PVRIG on cells [2] = target: T1, human PVRIG on cells; assay: FACS on Jurkat cells; column head 'Kd', unit nM from legend paragraph 75
human TIGIT on cells [3] = target: T2, human TIGIT on cells; assay: FACS titration of AF647-labelled mAb on human effector memory CD8+ T cells, Donor 321
Mouse TIGIT-His [4] = target: T3, Mouse TIGIT-His; assay: SPR (ProteOn), Mouse TIGIT-His
Cyno TIGIT-His = target: T5, Cyno TIGIT-His; assay: SPR (ProteOn), Cyno TIGIT-His
T5 construct: also called cyno TIGIT monomer (prepared in-house); C-terminal HIS-tagged cyno TIGIT ECD recombinant protein

human TIGIT on cells [5] = target: T2, human TIGIT on cells; assay: FACS titration of AF647-labelled mAb on human effector memory CD8+ T cells, Donor 322
human TIGIT on cells [6] = target: T2, human TIGIT on cells; assay: FACS titration of AF647-labelled mAb on human effector memory CD8+ T cells, Donor 334
human TIGIT on cells [7] = target: T2, human TIGIT on cells; assay: FACS blocking of human PVR-m2aFc binding to human TIGIT OE Expi293 cells; binding site concentration; n=1
[8] = target: T4, human TIGIT ECD with C-terminal …; assay: SPR (ProteOn), Human TIGIT-His
cyno TIGIT on cells [9] = target: T6, cyno TIGIT on cells (cynomolgus macaque); assay: FACS titration on cyno TIGIT OE Expi293 cells, binding site concentration; ± 95% CI; 'Fit: Good/Excellent'
T6 construct: whole, on cells; also called Expi293 cyno TIGIT over-expressing cells
Method: AF647-labeled goat anti-human F(ab′) (Jackson Immunoresearch) was added to the cells to detect binding of anti-TIGIT antibodies. The gMFI of the anti-TIGIT antibodies bound to the cyno TIGIT over-expressing Expi293 cells (black line), and the parental Expi293 cells (grey line) are shown.

human TIGIT on cells [10] = target: T2, human TIGIT on cells; assay: FACS blocking of human PVR-m2aFc binding to human TIGIT OE Expi293 cells; binding site concentration; n=2
human TIGIT on cells [11] = target: T2, human TIGIT on cells; assay: FACS titration on human TIGIT OE Expi293 cells, binding site concentration; ± 95% CI; 'Fit: Excellent'
Method: AF647-labeled goat anti-human F(ab′) (Jackson Immunoresearch) was added to the cells to detect binding of anti-TIGIT antibodies.

[12] = target: T4, human TIGIT ECD with C-terminal …; assay: KinExA equilibrium, His-tagged human TIGIT, n = 1
Method: KinExA equilibrium experiments were performed using a KinExA 3200 instrument (Sapidyne Instruments, Boise, ID, USA) at 22° C. Recombinant His-tagged human TIGIT was obtained from Sino Biologicals (Beijing, China) and reconstituted into 1×PBS. All antigen and antibody samples for KinExA analyses were prepared in degassed PBST buffer (PBS with 0.05% tween 20) with 100 ug/mL filtered BSA and 0.02% sodium azide. […] For each KinExA experiment, ˜20 lag of human TIGIT was diluted into 1 mL of 50 mM sodium carbonate, pH 9.2 which was added directly to 50 mg of azlactone beads (Ultralink Support, Thermo Scientific, Rockford, IL, USA) and rocked overnight at 4° C. After rocking, the beads were rinsed once with 1 M Tris buffer, pH 8.5, containing 10 mg/mL BSA and rocked for one hour at room temperature in the same buffer. Coupled beads were added to the bead reservoir in the KinExA instrument and diluted to ˜30 mL with 1×HBS-N (0.01 M Hepes, 0.15M NaCl, GE Healthcare) containing 0.02% sodium azide which was also the running buffer for the KinExA instrument. All antigen-coupled beads were used immediately after preparation.
The volume flowed through the bead pack for each equilibrated sample for all experiments ranged from 4 mL to 11 mL at a flow rate of 0.25 mL/min.

human TIGIT on cells [13] = target: T2, human TIGIT on cells; assay: flow cytometry of fab; MFI on human TIGIT over-expressing Expi293 / MFI on parental Expi293
[14] = target: T4, human TIGIT ECD with C-terminal …; assay: affinity maturation screen of fabs, SPR on hTIGIT-HIS
cyno TIGIT on cells [15] = target: T6, cyno TIGIT on cells; assay: flow cytometry of fab; MFI on cyno TIGIT over-expressing Expi293 / MFI on parental Expi293
cyno TIGIT on cells [16] = target: T6, cyno TIGIT on cells; assay: FACS titration of AF647-labelled mAb on cyno effector memory CD8+ T cells, Cyno Donor 1; isotype gMFI subtracted
cyno TIGIT on cells [17] = target: T6, cyno TIGIT on cells; assay: FACS titration of AF647-labelled mAb on cyno effector memory CD8+ T cells, Cyno Donor 3; isotype gMFI subtracted
human TIGIT on cells [18] = target: T2, human TIGIT on cells; assay: FACS KD on Expi293 human TIGIT over-expressing cells; ± 95% CI of the fit
human TIGIT on cells [19] = target: T2, human TIGIT on cells; assay: FACS blocking: Expi293 human TIGIT cells pre-incubated with mAb, then human PVR-m2aFc; lower gMFI = more blocking
Mouse TIGIT-His [20] = target: T3, Mouse TIGIT-His; assay: SPR (ProteOn), mAb captured, mouse TIGIT monomer injected
Method: (§1) All experiments were performed using a ProteOn XPR 36 instrument at 22° C. First, high density capture surfaces were prepared with goat anti human Fc polyclonal antibody (Thermo #H10500) and rabbit anti mouse antibodies (GE Healthcare #BR100838), respectively, immobilized over all vertical capture lanes and horizontal interspots on separate GLC chips using standard amine coupling. Typical immobilization levels for the anti-human capture pAb and the anti-mouse capture antibody for each GLC chip were around 5000 RU. Human TIGIT was obtained from Sino Biologicals while mouse TIGIT monomer and cyno TIGIT monomer were prepared in-house.
(§2) Each mAb was diluted to ˜0.5 μg/mL in running buffer which was 1×PBST with filtered BSA added to a final concentration of 100 μg/mL. For each “single-shot kinetics” cycle on the ProteOn instrument, a different mAb was captured over one of the six unique vertical capture lanes for approximately 1.5-2.5 minutes. After switching the buffer flow of the ProteOn to the horizontal direction, capture surfaces were stabilized for approximately 15-20 minutes. […] An identical buffer injection preceded each series of injected antigen for double-referencing. […] The sensorgrams of TIGIT antigen injected over captured mAbs were processed using a ProteOn version of Scrubber and were fit to a 1:1 kinetic binding model including a term for mass transport.

cyno TIGIT on cells [21] = target: T6, cyno TIGIT on cells; assay: FACS KD on Expi293 cyno TIGIT over-expressing cells; ± 95% CI of the fit
[22] = target: T4, human TIGIT ECD with C-terminal …; assay: SPR (ProteOn), mAb captured, human TIGIT injected
Method: as §1, §2

T5 sequence (ECD with C-terminal His tag, as listed by the source): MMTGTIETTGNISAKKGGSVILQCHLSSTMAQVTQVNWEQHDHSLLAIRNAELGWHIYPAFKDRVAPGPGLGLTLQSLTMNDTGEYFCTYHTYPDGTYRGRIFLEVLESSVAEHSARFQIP

Binder	Kd (human TIGIT on cells [3])	Kd (human TIGIT on cells [5])	Kd (human TIGIT on cells [6])	IC50 (human TIGIT on cells [7])	Kd (cyno TIGIT on cells [9])	IC50 (human TIGIT on cells [10])	Kd (human TIGIT on cells [11])	MFIr (OE/Par) hTIGIT (human TIGIT on cells [13])	fold improvement in binding over CPA.9.027 [14]	MFIr (OE/Par) cTIGIT (cyno TIGIT on cells [15])	also measured
B1											Kd (human PVRIG on cells [1]): 2.94 nM; Kd (human PVRIG on cells [2]): 3.18 nM
B2	1.8 nM	2.1 nM	1.8 nM	0.21 nM	1.54 nM	0.15 nM	0.82 nM				binding result (Mouse TIGIT-His [4]): no binding (tested: not printed); Kd (Cyno TIGIT-His): 0.456 nM; Kd [8]: 0.035 nM
B3	2 nM	1.9 nM	1.2 nM	0.26 nM	1.67 nM	0.21 nM	0.71 nM				Kd [12]: 0.0188 nM
B4								170	≥ 25 fold	97	
B5	0.13 nM	0.12 nM	0.13 nM	0.47 nM	0.49 nM	0.22 nM	0.39 nM				Kd (cyno TIGIT on cells [16]): 0.82 nM; Kd (Mouse TIGIT-His [4]): 0.434 nM; binding result (Cyno TIGIT-His): binds; Kd (cyno TIGIT on cells [17]): 0.88 nM; Kd [12]: 0.000694 nM; Kd [8]: 0.0017 nM
B6								110	≥ 25 fold	52	
B7											Kd (human TIGIT on cells [18]): 0.17 nM; gMFI of bound PVR-m2aFc at 266 pM mAb (human TIGIT on cells [19]): 529; gMFI of bound PVR-m2aFc at 1.3 nM mAb (human TIGIT on cells [19]): 253; gMFI of bound PVR-m2aFc at 6.7 nM mAb (human TIGIT on cells [19]): 208; Kd (Mouse TIGIT-His [20]): 80 nM; Kd (cyno TIGIT on cells [21]): 2.25 nM; Kd [22]: 0.13 nM
B8								36	≥ 25 fold	34	
B9								80	≥ 25 fold	60	
B10											Kd (human TIGIT on cells [18]): 0.26 nM; gMFI of bound PVR-m2aFc at 266 pM mAb (human TIGIT on cells [19]): 511; gMFI of bound PVR-m2aFc at 1.3 nM mAb (human TIGIT on cells [19]): 276; gMFI of bound PVR-m2aFc at 6.7 nM mAb (human TIGIT on cells [19]): 215; Kd (Mouse TIGIT-His [20]): 82.7 nM; Kd (cyno TIGIT on cells [21]): 1.88 nM; Kd [22]: 0.0945 nM
